Experimental data as given in patent US9410182B2, “Phosphatase coupled glycosyltransferase assay” (Bio-Techne Corporation, priority 2010, dated 2016).

Experiment: Transferase activity of Fut7 on 3′-sialyl-N-acetyllactosamine assayed with CD39L3
Assay type: biochemical
Settings: 0.1 μg CD39L3, 40 μM GDP-fucose, 40 μM 3′-sialyl-N-acetyllactosamine, 37° C., 30 minutes
From the text: The GDP-Fucose, UDP-Glucose, CMP-NeuAc, CMP, UDP and GDP used in the following experiments were obtained from Sigma-Aldrich (St Louis, Mo.). The recombinant human Fut7, ST6Gal1, CD73, CD39L3, non-specific alkaline phosphatase TNAP, recombinant Clostridium Difficile toxin B (TcdB) containing the glycosyltransferase domain and Malachite Green Phosphate Detection Kit were obtained from R&D Systems (Minneapolis, Minn.). The 3′-Sialyl-N-acetyllactosamine was obtained from V-LABS, Inc (Convington, La.). Unless otherwise specified, each glycosyltransferase reaction was performed in 50 μL of a buffer of 25 mM Tris, 150 mM NaCl, 5 mM MgCl2 and 5 mM MnCl2, at pH 7.5 in a 96-well plate at room temperature for 20 minutes. To determine kinetic parameters of each glycosyltransferase, multiple reactions with varied amounts of either glycosyltransferase or substrates were preceded simultaneously in the presence of fixed amounts of all other components, including a phosphatase. A well containing all components except glycosyltransferase served as a blank control for each example. […] The plate was then read at 620 nm with a multi-well plate reader.
The only known function of fucosyltransferase 7 (Fut7) is the biosynthesis of sialy Lewis X epitope in leukocytes and high endothelial venule cells. […] The reaction was then stopped and detected by malachite reagents. […]

B1: Fut7: recombinant human fucosyltransferase 7 from R&D Systems (protein, UniProt Q11130 1-342, looked up)
Alpha-(1,3)-fucosyltransferase …: MNNAGHGPTRRLRGLGVLAGVALLAALWLLWLLGSAPRGTPAPQPTITILVWHWPFTDQPPELPSDTCTRYGIARCHLSANRSLLASADAVVFHHRELQTRRSHLPLAQRPRGQPWVWASMESPSHTHGLSHLRGIFNWVLSYRRDSDIFVPYGRLEPHWGPSPPLPAKSRVAAWVVSNFQERQLRARLYRQLAPHLRVDVFGRANGRPLCASCLVPTVAQYRFYLSFENSQHRDYITEKFWRNALVAGTVPVVLGPPRATYEAFVPADAFVHVDDFGSARELAAFLTGMNESRYQRFFAWRDRLRVRLFTDWRERFCAICDRYPHLPRSQVYEDLEGWFQA
In the case of B1, the “specific activity of the enzyme” value is reported as 12.6 pmol/min/µg.
